This note sets out measurements from patent US20260234260A1 (EUCURE BEIJING BIOPHARMA, published 2026).

Read-outs that look alike come from different tables or passages of the source.

The target of test [1] is human PD-1 expressed on cells (Jurkat-Luc-hPD-1, CHO-K1-hPD1, Jurkat-hPD1) (human, UniProt Q15116 25-288). The test can be described thus: cell-based or functional assay.
Test [2] deals with T1, neonatal Fc receptor (FcRn).
T1 construct: Analyte in Biacore
The test can be described thus: SPR (Biacore), antibody captured, FcRn as analyte. As to the method:
The binding affinity to neonatal Fc receptor (FcRn) was determined by Biacore® systems.
On the technique in general: In SPR one partner is held on a chip, and binding of the other changes the refractive index at the surface.

Test [3] addresses T2, human PD-1/PDCD1 protein, His Tag (ACRO Biosystems Cat #PD1-H5221) (human, UniProt Q15116 25-167).
T2 construct: Bought protein; also called hPD-1; human PD-1 protein; not shown: His tag
The test can be described thus: SPR (Biacore), antibody captured, His-tagged hPD-1 in solution.

In test [4] the target is T3, human CD40 expressed on Jurkat-Luc-hCD40 reporter cells (human, UniProt P25942 21-277). The test can be described thus: cell-based or functional assay.
T3 sequence (P25942 21-277 limits assumed): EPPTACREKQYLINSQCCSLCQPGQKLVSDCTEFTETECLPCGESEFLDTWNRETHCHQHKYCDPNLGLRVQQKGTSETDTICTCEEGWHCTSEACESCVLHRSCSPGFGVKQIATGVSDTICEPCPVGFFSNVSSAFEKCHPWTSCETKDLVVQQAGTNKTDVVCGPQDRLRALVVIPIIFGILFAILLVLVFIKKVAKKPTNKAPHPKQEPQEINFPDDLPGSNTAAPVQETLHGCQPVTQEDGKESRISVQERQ
Test [5] has as its target T3, human CD40 expressed on …. Put plainly: cell-based or functional assay. The source holds these as a separate data set.
Test [6] addresses T4, human CD40/TNFRSF5 Protein, His Tag (ACRO Biosystems Cat #CD0-H5228) (human, UniProt P25942 21-193).
T4 construct: Bought protein; also called hCD40; human CD40 protein; not shown: His tag
The test can be described thus: SPR (Biacore), antibody captured, His-tagged hCD40 in solution.

Test [7] deals with T4, human CD40/TNFRSF5 Protein, His Tag …. The test can be described thus: SPR (Biacore), hCD40. As to the method:
The binding affinity to human […] (hCD40) was determined by Biacore systems.

The target of test [8] is T3, human CD40 expressed on …. Put plainly: cell-based or functional assay. This is another data set of the same source.
Test [9] concerns the target T3, human CD40 expressed on …. Put plainly: cell-based or functional assay. This is another data set of the same source.
Test [10] concerns the target T3, human CD40 expressed on …. Put plainly: cell-based or functional assay. This is another data set of the same source.
The target in test [11] is T3, human CD40 expressed on …. Put plainly: cell-based or functional assay. The source holds these as a separate data set.
The target of test [12] is T3, human CD40 expressed on …. Put plainly: cell-based or functional assay. The source holds these as a separate data set.
Test [13] addresses T3, human CD40 expressed on …. The test can be described thus: cell-based or functional assay. The source holds these as a separate data set.
Test [14] deals with T3, human CD40 expressed on …. Put plainly: cell-based or functional assay. This is another data set of the same source.

T4 sequence (P25942 21-193 limits assumed): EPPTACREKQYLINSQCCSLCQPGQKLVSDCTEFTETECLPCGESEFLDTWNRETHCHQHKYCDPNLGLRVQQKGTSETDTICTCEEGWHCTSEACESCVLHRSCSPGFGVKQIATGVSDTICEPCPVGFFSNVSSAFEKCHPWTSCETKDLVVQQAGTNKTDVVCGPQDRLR
Sequence of human PD-1 expressed on cells (Jurkat-Luc-hPD-1, CHO-K1-hPD1, Jurkat-hPD1) (Q15116 25-288 limits assumed): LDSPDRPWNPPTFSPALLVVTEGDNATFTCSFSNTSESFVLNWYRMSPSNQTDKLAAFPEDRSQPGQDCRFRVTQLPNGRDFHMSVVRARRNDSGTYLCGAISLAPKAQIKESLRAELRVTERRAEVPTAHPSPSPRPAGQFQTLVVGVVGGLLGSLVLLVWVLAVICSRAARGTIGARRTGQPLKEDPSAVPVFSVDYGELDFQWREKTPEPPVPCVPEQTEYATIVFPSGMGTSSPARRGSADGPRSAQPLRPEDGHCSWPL
T2 sequence (Q15116 25-167 limits assumed): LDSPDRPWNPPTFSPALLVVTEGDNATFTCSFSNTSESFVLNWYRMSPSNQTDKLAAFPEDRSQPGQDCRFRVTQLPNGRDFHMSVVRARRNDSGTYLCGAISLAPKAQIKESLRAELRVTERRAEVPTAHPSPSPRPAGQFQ
T1 sequence (P55899 24-297, chain 1 of 2): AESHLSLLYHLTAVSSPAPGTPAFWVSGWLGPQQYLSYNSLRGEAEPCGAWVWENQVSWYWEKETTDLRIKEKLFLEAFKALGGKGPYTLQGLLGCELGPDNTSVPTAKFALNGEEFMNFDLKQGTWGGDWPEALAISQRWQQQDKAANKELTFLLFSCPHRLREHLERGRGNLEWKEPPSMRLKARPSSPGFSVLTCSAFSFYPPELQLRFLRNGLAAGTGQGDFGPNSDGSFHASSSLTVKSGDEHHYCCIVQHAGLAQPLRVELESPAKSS
T1 sequence (P61769 21-119, chain 2 of 2, further chain): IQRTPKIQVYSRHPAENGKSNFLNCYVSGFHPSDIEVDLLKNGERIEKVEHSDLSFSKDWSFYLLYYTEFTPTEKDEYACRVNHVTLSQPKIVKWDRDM

B1: anti-PD-1 monoclonal antibody 1A7-H2K3-IgG4 (antibody)
VH: EVQLVESGGGLVQPGGSLRLSCAASGFTFSSYSMSWVRQAPGKRLEWVAHISSGGSSTYYPDTVKGRFTISRDNSKNTLYLQMNSLRAEDTAMYYCTRQFYYGSSFWYFDVWGAGTTVTVSS
light: DNVLTQSPATLSVSPGERATLSCKASQSVDFDGDSYMNWYQQKPGQPPRLLIYAASNLESGIPARFSGSGSGTDFTLTISSVEPEDFATYYCQQSNEDPPTFGGGTKVEIKRTVAAPSVFIFPPSDEQLKSGTASVVCLLNNFYPREAKVQWKVDNALQSGNSQESVTEQDSKDSTYSLSSTLTLSKADYEKHKVYACEVTHQGLSSPVTKSFNRGEC
notes: IgG4; also called PD-1 (1A7-H2K3-IgG4); PD1-1A7-H2K3-IgG4
As usually defined, the Kd is the constant that tells how readily two partners part at equilibrium. Read a low Kd as tighter binding. What is called koff is the rate constant with which the complex falls apart. A high value points to a short-lived complex. In general, kon refers to the rate constant with which the complex forms. Read a high kon as faster complex formation. Turning to B1, the “EC50 Value (ug/ml), luminescence of Jurkat-Luc-hPD-1 effector cells co-cultured with CHO-aAPC-hPD-L1 cells” value (“EC50 Value (ug/ml) … with CHO-aAPC-hPD-L1 cells” below) in test [1] came out at 5.61 µg/mL. Further, binding in test [2] was put at a Kd of 2210 nM. In test [3], this molecule registered a dissociation constant Kd of 8.56 nM, a koff of 0.00125 s⁻¹ and a kon of 146000 M⁻¹ s⁻¹.

B2: ScFV-HC-IgG4 (bispecific antibody)
heavy: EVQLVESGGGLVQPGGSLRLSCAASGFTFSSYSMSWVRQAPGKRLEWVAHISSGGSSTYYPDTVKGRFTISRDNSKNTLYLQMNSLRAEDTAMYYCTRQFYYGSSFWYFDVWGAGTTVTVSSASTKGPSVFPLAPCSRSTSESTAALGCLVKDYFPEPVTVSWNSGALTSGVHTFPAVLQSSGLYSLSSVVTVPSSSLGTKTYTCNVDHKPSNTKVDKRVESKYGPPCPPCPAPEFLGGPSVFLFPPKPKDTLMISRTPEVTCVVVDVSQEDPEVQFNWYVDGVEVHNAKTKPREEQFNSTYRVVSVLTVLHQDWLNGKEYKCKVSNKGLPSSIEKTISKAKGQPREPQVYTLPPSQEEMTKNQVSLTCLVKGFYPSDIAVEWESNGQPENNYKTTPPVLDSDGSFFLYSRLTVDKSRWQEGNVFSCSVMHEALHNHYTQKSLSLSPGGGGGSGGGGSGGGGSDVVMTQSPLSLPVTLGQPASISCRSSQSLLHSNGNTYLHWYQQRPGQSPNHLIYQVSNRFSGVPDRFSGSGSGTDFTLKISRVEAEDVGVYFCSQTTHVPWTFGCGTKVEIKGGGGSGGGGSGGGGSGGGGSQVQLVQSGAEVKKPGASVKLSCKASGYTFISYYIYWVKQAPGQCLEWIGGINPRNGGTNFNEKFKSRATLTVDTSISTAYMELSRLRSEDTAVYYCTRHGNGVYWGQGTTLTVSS
light: B1 light
notes: Anti-CD40 scFv (6A7-H4K2) joined to the C-terminus of each heavy chain of the anti-PD-1 antibody 1A7-H2K3, IgG4
As for B2, the “EC50 Value (ug/ml) … with CHO-aAPC-hPD-L1 cells” value in test [1] worked out at 4.36 µg/mL. Further, in test [4], the “EC50 Value (ug/ml), luminescence of Jurkat-Luc-hCD40 reporter cells in the presence of CHO-K1-hPD1 basal cells” value was determined as 0.0108 µg/mL. Besides, the “EC50 Value (ug/ml), luminescence of Jurkat-Luc-hCD40 reporter cells in the presence of Jurkat-hPD1 basal cells” value (“EC50 Value (ug/ml) … of Jurkat-hPD1 basal cells” for short) in test [5] was found to be 0.0079 µg/mL. In addition, in test [3], binding was put at a Kd of 8.28 nM, the koff is 0.00122 s⁻¹ and the kon worked out at 148000 M⁻¹ s⁻¹. In test [6], this molecule came in with a Kd of 1.3 nM, a koff of 0.00034 s⁻¹ and a kon of 261000 M⁻¹ s⁻¹.

B3: PD1-C40-6A7-FV3A (bispecific antibody, human IgG4 S228P, kappa)
heavy: EVQLVESGGGLVQPGGSLRLSCAASGFTFSSYSMSWVRQAPGKRLEWVAHISSGGSSTYYPDTVKGRFTISRDNSKNTLYLQMNSLRAEDTAMYYCTRQFYYGSSFWYFDVWGAGTTVTVSSASTKGPSVFPLAPCSRSTSESTAALGCLVKDYFPEPVTVSWNSGALTSGVHTFPAVLQSSGLYSLSSVVTVPSSSLGTKTYTCNVDHKPSNTKVDKRVESKYGPPCPPCPAPEFLGGPSVFLFPPKPKDTLMISRTPEVTCVVVDVSQEDPEVQFNWYVDGVEVHNAKTKPREEQFNSTYRVVSVLTVLHQDWLNGKEYKCKVSNKGLPSSIEKTISKAKGQPREPQVYTLPPSQEEGGGGSGGGGSDVVMTQSPLSLPVTLGQPASISCRSSQSLLHSNGNTYLHWYQQRPGQSPNHLIYQVSNRFSGVPDRFSGSGSGTDFTLKISRVEAEDVGVYFCSQTTHVPWTFGCGTKVEIKGGGGSGGGGSGGGGSGGGGSQVQLVQSGAEVKKPGASVKLSCKASGYTFISYYIYWVKQAPGQCLEWIGGINPRNGGTNFNEKFKSRATLTVDTSISTAYMELSRLRSEDTAVYYCTRHGNGVYWGQGTTLTVSSGGGGSGGGGSVSLTCLVKGFYPSDIAVEWESNGQPENNYKTTPPVLDSDGSFFLYSRLTVDKSRWQEGNVFSCSVMHEALHNHYTQKSLSLSPGK
light: B1 light
notes: Anti-CD40 scFv (6A7) fused into each heavy chain CH3 domain at positions 358-362 (EU numbering) of the anti-PD-1 antibody 1A7-H2K3-IgG4
As to B3, in [7], the Kd was determined as 0.419 nM, the koff came to 0.000255 s⁻¹ and the kon was 608000 M⁻¹ s⁻¹. For the same molecule, the “EC50 (read off the curve), luciferase Rlu, Jurkat-Luc-hCD40 reporter cells with CHO-K1-hPD-1 basal cells” value in test [8] is ~0.03 µg/mL. The molecule further came in with a Kd in test [2] of 1680 nM.

B4: 1A7-selicrelumab-FV3A-IgG4 (bispecific antibody)
heavy: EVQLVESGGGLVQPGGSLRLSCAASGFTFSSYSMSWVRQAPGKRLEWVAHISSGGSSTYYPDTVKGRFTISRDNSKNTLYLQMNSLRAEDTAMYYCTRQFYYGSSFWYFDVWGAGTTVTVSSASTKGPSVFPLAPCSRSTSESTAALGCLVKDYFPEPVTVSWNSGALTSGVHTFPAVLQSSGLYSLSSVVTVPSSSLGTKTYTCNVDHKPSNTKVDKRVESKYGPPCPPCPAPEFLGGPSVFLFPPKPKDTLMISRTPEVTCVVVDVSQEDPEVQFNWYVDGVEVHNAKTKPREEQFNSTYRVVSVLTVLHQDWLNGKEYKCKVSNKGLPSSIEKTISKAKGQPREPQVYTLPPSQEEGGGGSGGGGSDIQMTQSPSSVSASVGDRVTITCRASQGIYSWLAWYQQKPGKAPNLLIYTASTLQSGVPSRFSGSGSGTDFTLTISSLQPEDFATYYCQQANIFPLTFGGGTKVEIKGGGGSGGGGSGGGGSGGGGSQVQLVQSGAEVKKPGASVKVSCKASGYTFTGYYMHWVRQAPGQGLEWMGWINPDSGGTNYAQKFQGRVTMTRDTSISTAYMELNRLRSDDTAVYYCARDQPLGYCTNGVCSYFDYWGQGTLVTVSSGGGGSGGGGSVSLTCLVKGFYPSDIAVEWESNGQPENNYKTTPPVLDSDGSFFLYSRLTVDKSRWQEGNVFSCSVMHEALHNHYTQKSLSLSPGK
light: B1 light
A word on the EC50 (read off the curve): it is the concentration that produces a half-maximal response. As to B4, the “EC50 (read off the curve)” value in [9] is ~0.3 µg/mL.

B5: Fab-ScFV-IgG4 (bispecific antibody)
heavy: EVQLVESGGGLVQPGGSLRLSCAASGFTFSSYSMSWVRQAPGKRLEWVAHISSGGSSTYYPDTVKGRFTISRDNSKNTLYLQMNSLRAEDTAMYYCTRQFYYGSSFWYFDVWGAGTTVTVSSASTKGPSVFPLAPCSRSTSESTAALGCLVKDYFPEPVTVSWNSGALTSGVHTFPAVLQSSGLYSLSSVVTVPSSSLGTKTYTCNVDHKPSNTKVDKRVESKYGPPCPPCPAPEFLGGPSVFLFPPKPKDTLMISRTPEVTCVVVDVSQEDPEVQFNWYVDGVEVHNAKTKPREEQFNSTYRVVSVLTVLHQDWLNGKEYKCKVSNKGLPSSIEKTISKAKGQPREPQVYTLPPCQEEMTKNQVSLWCLVKGFYPSDIAVEWESNGQPENNYKTTPPVLDSDGSFFLYSRLTVDKSRWQEGNVFSCSVMHEALHNHYTQKSLSLSLGK
light: B1 light
chain: QVQLVQSGAEVKKPGASVKLSCKASGYTFISYYIYWVKQAPGQCLEWIGGINPRNGGTNFNEKFKSRATLTVDTSISTAYMELSRLRSEDTAVYYCTRHGNGVYWGQGTTLTVSSASTGGGGSGGGGSGGGGSGGGGSDVVMTQSPLSLPVTLGQPASISCRSSQSLLHSNGNTYLHWYQQRPGQSPNHLIYQVSNRFSGVPDRFSGSGSGTDFTLKISRVEAEDVGVYFCSQTTHVPWTFGCGTKVEIKDKRVESKYGPPCPPCPAPEFLGGPSVFLFPPKPKDTLMISRTPEVTCVVVDVSQEDPEVQFNWYVDGVEVHNAKTKPREEQFNSTYRVVSVLTVLHQDWLNGKEYKCKVSNKGLPSSIEKTISKAKGQPREPQVCTLPPSQEEMTKNQVSLSCAVKGFYPSDIAVEWESNGQPENNYKTTPPVLDSDGSFFLVSRLTVDKSRWQEGNVFSCSVMHEALHNHYTQKSLSLSLGK
notes: Anti-PD-1 arm (1A7-H2K3 heavy and light chain, IgG4 with KIH) and anti-CD40 arm (6A7-H4K2 scFv joined to IgG4 CH2-CH3 with KIH)
As for B5, the “EC50 Value (ug/ml) … with CHO-aAPC-hPD-L1 cells” value in test [1] came to 23.4 µg/mL. Besides, the “EC50 Value (ug/ml), luminescence of Jurkat-Luc-hCD40 reporter cells in the presence of CHO-K1-hPD1 basal cells” value in test [4] worked out at 0.0103 µg/mL. Moreover, the “EC50 Value (ug/ml), luminescence of Jurkat-Luc-hCD40 reporter cells in the presence of CHO-K1-hFcγRIIB basal cells” value in [10] turned out to be 0.0543 µg/mL. In addition, the “EC50 (read off the curve), luciferase Rlu, Jurkat-Luc-hCD40 reporter cells with CHO-K1-hFcγRIIB basal cells” value in test [11] is ~0.05 µg/mL. In addition, the “EC50 (read off the curve), luciferase Rlu, Jurkat-Luc-hCD40 reporter cells with CHO-K1-hPD-1 basal cells” value in test [8] is ~0.04 µg/mL. In test [3], this molecule came in with a Kd of 9.78 nM, a koff of 0.00117 s⁻¹ and a kon of 120000 M⁻¹ s⁻¹. In test [6], this molecule displayed a Kd of 1.75 nM, a dissociation rate constant (koff) of 0.0005 s⁻¹ and an on-rate (kon) of 285000 M⁻¹ s⁻¹.

B6: ScFV-HC-IgG1-LALA (bispecific antibody)
heavy: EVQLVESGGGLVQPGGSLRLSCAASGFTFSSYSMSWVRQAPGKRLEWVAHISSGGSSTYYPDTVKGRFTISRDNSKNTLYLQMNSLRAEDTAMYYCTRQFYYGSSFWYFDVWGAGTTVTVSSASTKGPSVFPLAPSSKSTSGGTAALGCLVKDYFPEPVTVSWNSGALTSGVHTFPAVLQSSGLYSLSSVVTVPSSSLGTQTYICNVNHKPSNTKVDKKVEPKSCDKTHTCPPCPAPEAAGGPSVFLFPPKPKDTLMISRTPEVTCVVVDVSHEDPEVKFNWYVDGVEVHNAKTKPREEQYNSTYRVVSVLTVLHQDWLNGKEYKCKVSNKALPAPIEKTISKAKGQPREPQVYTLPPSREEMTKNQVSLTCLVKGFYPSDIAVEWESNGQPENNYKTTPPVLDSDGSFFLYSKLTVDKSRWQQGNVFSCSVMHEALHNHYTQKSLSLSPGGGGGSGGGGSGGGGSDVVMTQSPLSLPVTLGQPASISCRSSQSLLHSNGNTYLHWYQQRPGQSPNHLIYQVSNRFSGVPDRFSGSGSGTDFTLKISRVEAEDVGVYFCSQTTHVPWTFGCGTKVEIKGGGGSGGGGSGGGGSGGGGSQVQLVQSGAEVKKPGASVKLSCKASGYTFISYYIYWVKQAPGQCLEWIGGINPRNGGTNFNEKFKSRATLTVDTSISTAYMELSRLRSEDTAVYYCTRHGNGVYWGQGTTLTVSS
light: B1 light
For B6, the “EC50 Value (ug/ml) … of Jurkat-hPD1 basal cells” value in test [5] is 0.0065 µg/mL.

B7: anti-CD40 monoclonal antibody 6A7-H4K2-IgG2 (antibody, V domains shown)
VH: QVQLVQSGAEVKKPGASVKLSCKASGYTFISYYIYWVKQAPGQGLEWIGGINPRNGGTNFNEKFKSRATLTVDTSISTAYMELSRLRSEDTAVYYCTRHGNGVYWGQGTTLTVSS
VL: DVVMTQSPLSLPVTLGQPASISCRSSQSLLHSNGNTYLHWYQQRPGQSPNHLIYQVSNRFSGVPDRFSGSGSGTDFTLKISRVEAEDVGVYFCSQTTHVPWTFGGGTKVEIK
notes: IgG2; also called CD40 (6A7-H4K2-IgG2); C40 (6A7-H4K2-IgG2)
As for B7, the Kd in test [7] and in [6] was 3.06 nM each time. Also, the koff in test [7] and in test [6] was 0.000322 s⁻¹ throughout. For the same molecule, the kon in test [7] and in test [6] was 105000 M⁻¹ s⁻¹ each time. Besides, the “EC50 Value (ug/ml), luminescence of Jurkat-Luc-hCD40 reporter cells in the presence of CHO-K1-hFcγRIIB basal cells” value in [10] stood at 0.0203 µg/mL. The “EC50 Value (ug/ml) … of Jurkat-hPD1 basal cells” value in [5] amounted to 0.0089 µg/mL. The “EC50 (read off the curve), luciferase Rlu, Jurkat-Luc-hCD40 reporter cells, no basal cells” value in test [12] was ~0.3 µg/mL. Moreover, the “EC50 (read off the curve), luciferase Rlu, Jurkat-Luc-hCD40 reporter cells with CHO-K1-hFcγRIIB basal cells” value in [13] is ~0.01 µg/mL; in [11], ~0.02 µg/mL.

B8: Pembrolizumab-Seli-FVHC-IgG4 (bispecific antibody)
heavy: not shown
light: EIVLTQSPATLSLSPGERATLSCRASKGVSTSGYSYLHWYQQKPGQAPRLLIYLASYLESGVPARFSGSGSGTDFTLTISSLEPEDFAVYYCQHSRDLPLTFGGGTKVEIKRTVAAPSVFIFPPSDEQLKSGTASVVCLLNNFYPREAKVQWKVDNALQSGNSQESVTEQDSKDSTYSLSSTLTLSKADYEKHKVYACEVTHQGLSSPVTKSFNRGEC
Regarding B8, in test [9], the “EC50 (read off the curve)” value was ~0.1 µg/mL.

B9: Pembrolizumab-6A7-HC-IgG1-LALA (bispecific antibody)
heavy: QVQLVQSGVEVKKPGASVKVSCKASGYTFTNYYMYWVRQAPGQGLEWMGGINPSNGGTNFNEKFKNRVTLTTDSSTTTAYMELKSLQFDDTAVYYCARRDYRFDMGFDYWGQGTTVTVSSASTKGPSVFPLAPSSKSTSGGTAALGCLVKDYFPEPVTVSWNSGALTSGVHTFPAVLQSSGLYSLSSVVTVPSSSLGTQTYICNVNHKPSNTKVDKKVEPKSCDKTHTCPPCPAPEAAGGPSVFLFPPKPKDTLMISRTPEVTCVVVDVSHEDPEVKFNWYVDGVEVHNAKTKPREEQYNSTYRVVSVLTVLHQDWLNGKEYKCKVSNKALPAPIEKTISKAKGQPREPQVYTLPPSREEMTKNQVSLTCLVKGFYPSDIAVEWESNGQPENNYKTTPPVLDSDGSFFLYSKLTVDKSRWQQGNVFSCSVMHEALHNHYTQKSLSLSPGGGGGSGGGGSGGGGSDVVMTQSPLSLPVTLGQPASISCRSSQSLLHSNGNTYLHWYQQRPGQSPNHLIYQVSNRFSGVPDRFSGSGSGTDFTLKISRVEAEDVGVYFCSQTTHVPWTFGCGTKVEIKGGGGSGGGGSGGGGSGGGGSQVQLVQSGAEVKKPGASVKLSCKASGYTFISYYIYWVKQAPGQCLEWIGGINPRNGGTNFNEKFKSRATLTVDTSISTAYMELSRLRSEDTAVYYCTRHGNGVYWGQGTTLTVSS
light: B8 light
B9: the “EC50 (read off the curve)” value in test [14] was ~0.07 µg/mL.

B10: Pembrolizumab-APX005M-FVHC-IgG4 (bispecific antibody)
heavy: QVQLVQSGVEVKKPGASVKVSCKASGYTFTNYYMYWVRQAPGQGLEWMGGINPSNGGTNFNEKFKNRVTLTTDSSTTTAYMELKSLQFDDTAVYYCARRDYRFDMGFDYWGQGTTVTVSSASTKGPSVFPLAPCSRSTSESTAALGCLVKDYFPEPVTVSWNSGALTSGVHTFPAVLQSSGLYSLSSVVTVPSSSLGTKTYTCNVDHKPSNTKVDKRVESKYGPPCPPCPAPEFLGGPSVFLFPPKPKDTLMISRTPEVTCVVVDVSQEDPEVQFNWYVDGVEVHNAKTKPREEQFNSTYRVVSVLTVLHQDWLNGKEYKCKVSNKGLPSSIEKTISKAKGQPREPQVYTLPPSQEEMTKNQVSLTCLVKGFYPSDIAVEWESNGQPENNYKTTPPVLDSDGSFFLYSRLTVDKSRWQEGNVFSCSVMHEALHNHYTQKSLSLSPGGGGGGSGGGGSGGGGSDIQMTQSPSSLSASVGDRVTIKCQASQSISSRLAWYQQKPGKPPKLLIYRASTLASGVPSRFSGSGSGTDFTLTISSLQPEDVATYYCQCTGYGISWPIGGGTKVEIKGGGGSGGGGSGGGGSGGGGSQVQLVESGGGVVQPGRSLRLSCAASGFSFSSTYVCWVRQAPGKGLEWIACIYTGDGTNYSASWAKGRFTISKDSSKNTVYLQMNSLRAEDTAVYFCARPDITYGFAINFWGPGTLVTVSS
light: B8 light
For the molecule B10, in [14], the “EC50 (read off the curve)” value is ~0.2 µg/mL.
